PMC12432895 (Molecular Therapy, 2025)

B1: ACI-5891 mouse IgG2a mAb produced with the bicistronic IRES-LC/HC expression cassette (antibody, V domains shown)
VH: EVQLQQSGPELVKPGASVKISCKTSGFTFTEYSMHWVKQSHGKSLEWIGGINPNNGGTSYNQKFKGKATLTVDKSSSTAYMELRSLTSEDSAVYYCARESWGQGTTLTVSS
VL: not shown
B2: anti-human TDP-43 mAb ACI-5891, mouse IgG2a, conventionally produced reference mAb (antibody, V domains shown)
VH: B1 VH
VL: not shown
B3: ACI-5891 human IgG1 chimeric reference mAb, conventionally produced (antibody, V domains shown)
VH: B1 VH
VL: not shown
B4: ACI-5891 human IgG1 chimeric mAb produced with the bicistronic IRES-LC/HC expression cassette (antibody, V domains shown)
VH: B1 VH
VL: not shown

target: recombinant soluble full-length human TDP-43 (transactive response DNA binding protein-43) (Homo sapiens (Human)., UniProt Q13148); assay: SPR
Sequence (Q13148 whole entry): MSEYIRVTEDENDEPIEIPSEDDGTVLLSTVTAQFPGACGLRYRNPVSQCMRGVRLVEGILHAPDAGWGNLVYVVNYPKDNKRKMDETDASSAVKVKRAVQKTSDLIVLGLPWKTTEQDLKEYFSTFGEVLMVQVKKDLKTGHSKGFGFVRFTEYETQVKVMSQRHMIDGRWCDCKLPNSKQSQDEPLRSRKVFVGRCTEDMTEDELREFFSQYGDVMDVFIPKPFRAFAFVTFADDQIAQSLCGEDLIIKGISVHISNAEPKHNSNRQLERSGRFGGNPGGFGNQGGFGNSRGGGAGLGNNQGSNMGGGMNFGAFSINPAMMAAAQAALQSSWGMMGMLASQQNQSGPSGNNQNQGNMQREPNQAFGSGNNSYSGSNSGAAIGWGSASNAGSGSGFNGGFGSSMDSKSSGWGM

Point of comparison: B3, Kd 87 pM. Against it:
- B1 — within 1.5-fold, 90 pM
- B2 — within 1.5-fold, 92 pM
- B4 — within 1.5-fold, 92 pM
